According to patent US20200157212A1 (Pfizer, published 2020):
Where a chain is given by its changes, count along the chain named. One block for each binder: values may come before it.

Biological target: T1, Human ROBO2 overexpressed on HEK293 cells (human, UniProt Q9HCK4 22-1378)
T1 construct: also called ROBO2 cells; native ROBO2
T1 sequence: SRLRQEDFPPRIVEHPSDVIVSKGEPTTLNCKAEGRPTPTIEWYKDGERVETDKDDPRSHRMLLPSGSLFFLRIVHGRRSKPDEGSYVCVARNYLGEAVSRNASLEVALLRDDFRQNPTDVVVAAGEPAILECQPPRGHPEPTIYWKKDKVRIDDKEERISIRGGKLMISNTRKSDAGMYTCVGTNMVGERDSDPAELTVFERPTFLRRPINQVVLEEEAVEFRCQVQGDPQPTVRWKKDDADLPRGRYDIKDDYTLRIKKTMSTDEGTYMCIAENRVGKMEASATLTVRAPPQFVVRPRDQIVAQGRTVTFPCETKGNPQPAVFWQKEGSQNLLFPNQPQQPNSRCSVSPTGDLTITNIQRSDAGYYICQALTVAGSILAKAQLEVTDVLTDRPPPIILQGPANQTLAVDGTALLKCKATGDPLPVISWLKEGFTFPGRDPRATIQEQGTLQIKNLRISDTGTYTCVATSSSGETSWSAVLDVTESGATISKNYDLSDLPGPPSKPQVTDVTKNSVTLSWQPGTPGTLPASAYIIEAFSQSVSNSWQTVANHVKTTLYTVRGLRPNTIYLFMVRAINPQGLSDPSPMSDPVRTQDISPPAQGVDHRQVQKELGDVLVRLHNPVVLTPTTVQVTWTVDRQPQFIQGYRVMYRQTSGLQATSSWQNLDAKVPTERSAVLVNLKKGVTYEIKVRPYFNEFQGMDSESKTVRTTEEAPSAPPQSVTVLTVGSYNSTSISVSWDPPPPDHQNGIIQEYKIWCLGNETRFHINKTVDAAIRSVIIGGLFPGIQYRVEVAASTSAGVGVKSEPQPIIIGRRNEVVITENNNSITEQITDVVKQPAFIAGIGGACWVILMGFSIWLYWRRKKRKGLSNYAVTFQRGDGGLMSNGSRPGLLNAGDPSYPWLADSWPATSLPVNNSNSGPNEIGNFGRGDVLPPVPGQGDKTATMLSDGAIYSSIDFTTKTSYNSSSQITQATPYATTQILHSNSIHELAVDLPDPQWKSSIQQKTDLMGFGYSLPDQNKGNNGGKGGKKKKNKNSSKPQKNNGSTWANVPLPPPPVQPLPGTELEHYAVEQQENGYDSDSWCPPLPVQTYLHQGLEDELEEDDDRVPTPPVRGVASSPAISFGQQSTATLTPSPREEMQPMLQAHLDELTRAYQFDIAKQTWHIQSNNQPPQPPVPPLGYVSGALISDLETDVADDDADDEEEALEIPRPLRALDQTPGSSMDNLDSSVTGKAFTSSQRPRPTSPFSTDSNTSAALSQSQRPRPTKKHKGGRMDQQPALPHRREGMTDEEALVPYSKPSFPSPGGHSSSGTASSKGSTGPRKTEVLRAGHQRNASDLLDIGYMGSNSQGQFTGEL
Assay: flow cytometry, HEK293 cells
Procedure: Using flow cytometry, improvement in the binding EC₅₀ to human ROBO2 relative to the parental 93H2 was evaluated. Starting at 6.7 nM, 11-point, 3-fold dilution series were made for each antibody and used to stain HEK293 overexpressing human ROBO2 as described above for the ROBO2 fold selectivity (Example 2). […] In addition to measuring improved binding to human ROBO2, it was important to ensure that high affinity binding to both cynomolgus monkey ROBO2 and rat ROBO2 was maintained. Using HEK293 cells overexpressing either cynomolgus monkey ROBO2 or rat ROBO2, the relative dose-dependent binding of 93H2, Abcs25 and Abcs35 was evaluated as described above. High affinity binding to both cynomolgus monkey and rat ROBO2 was maintained in Abcs25 and Abcs35 (Table 4). […] Briefly, Abcs35 was immobilized to 300 resonance units (RU) on a CM5 chip. Association of ROBO2 Ig1-Ig2-His (ROBO2) was measured over 5 minutes and dissociation was followed for a period of 10 minutes.
The binding profile of Abcs35-J compared to Abcs35 was determined for human ROBO2, orthologs from cynomolgus monkey and rat, human ROBO1 and specificity for the RSK epitope from ROBO2 but not KSR from ROBO1. Binding was assessed by flow cytometry as described in Examples 2 (homolog specificity), Example 3 (ortholog reactivity) and Example 5 (RSK vs KSR epitope specificity). […] Binding of the antibodies was detected using a secondary fluorochrome conjugated anti-human IgG F(ab′)₂ antibody and samples analyzed on a Fortessa cytometer (BD Biosciences).

B1: Abcs35 (antibody, human IgG1, kappa)
heavy: EVQLVQSGAEVKKPGASVKVSCKASGYTFTGYYMHWVRQAPGQGLEWMGWINPKNGDTEFPQKFQGRVTMTRDTSITTAYMDLSRLRSDDTAVYYCARESGDDAFDIWGQGTMVTVSSASTKGPSVFPLAPSSKSTSGGTAALGCLVKDYFPEPVTVSWNSGALTSGVHTFPAVLQSSGLYSLSSVVTVPSSSLGTQTYICNVNHKPSNTKVDKKVEPKSCDKTHTCPPCPAPEAAGAPSVFLFPPKPKDTLMISRTPEVTCVVVDVSHEDPEVKFNWYVDGVEVHNAKTKPREEQYNSTYRVVSVLTVLHQDWLNGKEYKCKVSNKALPAPIEKTISKAKGQPREPQVYTLPPSREEMTKNQVSLTCLVKGFYPSDIAVEWESNGQPENNYKTTPPVLDSDGSFFLYSKLTVDKSRWQQGNVFSCSVMHEALHNHYTQKSLSLSPGK
light: DIVMTQSPSSLSASVGDRVTITCRASQSISSYLNWYQQKPGKAPKLLIYAASSLQSGVPSRFSGSGSGTDFTLTISSLQPEDFATYYCQQSVGLFFGGGTKVEIKRTVAAPSVFIFPPSDEQLKSGTASVVCLLNNFYPREAKVQWKVDNALQSGNSQESVTEQDSKDSTYSLSSTLTLSKADYEKHKVYACEVTHQGLSSPVTKSFNRGEC
notes: fully human IgG1; VH of Ab96 with VL of Ab123
EC50: 0.089 nM

EC50: 0.102 nM
B2: Abcs35-J (antibody, human IgG1, kappa)
heavy: B1 heavy with D82E
light: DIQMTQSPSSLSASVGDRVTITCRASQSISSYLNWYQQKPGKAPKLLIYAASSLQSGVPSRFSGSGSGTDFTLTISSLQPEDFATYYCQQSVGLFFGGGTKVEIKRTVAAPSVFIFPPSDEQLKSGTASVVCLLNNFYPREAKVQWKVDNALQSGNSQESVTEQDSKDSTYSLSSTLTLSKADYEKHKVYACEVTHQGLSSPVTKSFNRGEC
notes: germlined variant of Abcs35; also called ABCS-J
